From paper doi:10.1101/2023.02.26.530074, “Atomic resolution structure of a DNA-binding histone protein from the bacterium Bdellovibrio bacteriovorus” (bioRxiv, 2023)

Target: the molecule itself
Assay: SEC-MALS; HBb at 3 mg/mL, Superdex 75 Increase 10/300 GL, 20 mM Tris pH 8.0, 150 mM NaCl, 1 M urea, 0.5 mL/min

B1: histone protein HBb from Bdellovibrio bacteriovorus (natural protein)
chain: MAEVLVVTSKVKKLIKEKGQMNTSAETIDVLSKAIEQLCLKGVESAKADGRKTVMARDIVIDHL
notes: HBb, histone homolog of Bdellovibrio bacteriovorus HD100, UniProt Q6MRM1; 64 amino acid residues, single histone fold domain; the gene encoding HBb was codon-optimized, synthesized and cloned into pETHis1a; In the crystal the first three and last three amino acids are not resolved; also called bacterial histone HBb; Bd0055; source: E. coli Mutant56(DE3), purified (HisTrap, TEV cleavage, second …)
  stoichiometry N: 2
